Measured values published in article PMC3478510, “LI-cadherin cis-dimerizes in the plasma membrane Ca^2+ independently and forms highly dynamic trans-contacts” (Cellular and Molecular Life Sciences: CMLS, 2012).

T1: LI-cadherin C-terminally tagged with cyan (LI-CFP) or yellow (LI-YFP) fluorescent protein (UniProt Q9R100 26-827)
T1 construct: LI-cadherin (cadherin-17); Two differently tagged copies of the same protein (CFP donor, YFP acceptor), co-expressed for FRET; In the control with EGFR-CFP only the YFP-tagged copy was present; also called LI-cadherin-CFP fusion protein; LI-cadherin-YFP fusion protein; source: HEK293, transfected (FuGENE-6), in living cells; not shown: CFP (on one copy) or YFP (on the other copy), C-terminal, kept
T1 sequence (looked up): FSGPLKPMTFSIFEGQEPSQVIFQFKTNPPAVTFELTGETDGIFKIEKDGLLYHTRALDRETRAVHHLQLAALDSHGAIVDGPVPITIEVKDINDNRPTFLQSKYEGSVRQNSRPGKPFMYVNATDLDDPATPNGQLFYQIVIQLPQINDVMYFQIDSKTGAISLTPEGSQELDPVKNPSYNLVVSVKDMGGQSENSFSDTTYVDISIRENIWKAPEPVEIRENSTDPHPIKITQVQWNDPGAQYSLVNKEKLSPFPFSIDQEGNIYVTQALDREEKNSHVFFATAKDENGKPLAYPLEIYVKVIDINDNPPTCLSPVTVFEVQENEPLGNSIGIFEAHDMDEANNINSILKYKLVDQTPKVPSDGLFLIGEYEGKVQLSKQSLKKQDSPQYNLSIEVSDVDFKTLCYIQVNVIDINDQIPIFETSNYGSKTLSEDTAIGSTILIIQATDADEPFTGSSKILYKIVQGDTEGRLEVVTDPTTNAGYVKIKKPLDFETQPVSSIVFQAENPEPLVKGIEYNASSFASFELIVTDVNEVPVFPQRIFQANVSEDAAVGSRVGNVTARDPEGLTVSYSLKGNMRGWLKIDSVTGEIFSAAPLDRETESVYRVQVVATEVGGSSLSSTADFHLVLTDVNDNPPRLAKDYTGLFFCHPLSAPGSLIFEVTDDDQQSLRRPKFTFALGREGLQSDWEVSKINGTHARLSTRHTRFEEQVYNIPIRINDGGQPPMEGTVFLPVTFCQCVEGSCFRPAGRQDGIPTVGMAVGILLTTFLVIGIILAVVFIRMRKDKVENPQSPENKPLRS

B1: untagged LI-cadherin (natural protein, UniProt Q9R100 26-827, looked up)
chain: T1 sequence (looked up)
notes: LI-cadherin (cadherin-17), untagged wild type; The expression construct of the untagged protein is not described in the methods; also called LIwt; wild-type LI; source: HEK293, transfected, in living cells (twofold excess, coexpressed with LI-CFP and LI-YFP)

Assays:
[1] = target: LI-cadherin ECD (Homo sapiens) (UniProt Q12864); conditions: cited from earlier work
[2] = target: T1, LI-cadherin C-terminally tagged with …; experiment: FRET or BRET; FRET competition: twofold excess of untagged LI-cadherin coexpressed with LI-CFP and LI-YFP in HEK293 cells; acceptor photobleaching; conditions: partners not purified

Molecule	Kd [1] [µM]	FRET efficiency of LI-CFP/LI-YFP with a twofold excess of untagged LI-cadherin [2] [%]
LI-cadherin ECD (from UniProt Q12864)	27	–
B1	–	5.2
